# Ends that are not written are not given here. * marks the point of attachment. Biotin = O=C1N[C@H]2[C@H](CS[C@H]2CCCCC(=O)*)N1
# T1: GST-MPP2 PDZ domain fusion protein
# T1 construct: also called maguk p55 subfamily member 2 (DLG2); MMP2; not shown: glutathione S-transferase (GST) encoded by pGEX-3X
# T1 chain: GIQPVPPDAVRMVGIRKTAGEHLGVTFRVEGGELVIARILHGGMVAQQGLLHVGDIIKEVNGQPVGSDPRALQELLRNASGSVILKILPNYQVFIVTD
# T2: GST-NeDLG PDZ domains 1-2 fusion protein (Mus musculus (Mouse), UniProt P70175 147-332)
# T2 construct: also called NeDLG1; not shown: glutathione S-transferase (GST) encoded by pGEX-3X
# T2 chain: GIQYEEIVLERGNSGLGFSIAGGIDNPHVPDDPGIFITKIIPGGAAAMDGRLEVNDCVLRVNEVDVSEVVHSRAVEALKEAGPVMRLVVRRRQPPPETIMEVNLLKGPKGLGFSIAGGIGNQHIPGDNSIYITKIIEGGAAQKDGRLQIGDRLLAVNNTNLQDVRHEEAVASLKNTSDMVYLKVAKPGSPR
# T3: GST-SYN1a (alpha1-syntrophin) PDZ domain fusion protein (Homo sapiens (Human), UniProt Q13424 84-179)
# T3 construct: also called SYN 1 α; not shown: glutathione S-transferase (GST) encoded by pGEX-3X
# T3 sequence: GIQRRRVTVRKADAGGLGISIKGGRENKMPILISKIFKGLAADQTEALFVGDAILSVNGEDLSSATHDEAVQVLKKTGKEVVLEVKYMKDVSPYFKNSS
# T4: GST-DVL1 PDZ domain fusion protein (human)
# T4 construct: also called human dishevelled segment polarity protein homolog; not shown: glutathione S-transferase (GST) encoded by pGEX-3X
# T4 chain: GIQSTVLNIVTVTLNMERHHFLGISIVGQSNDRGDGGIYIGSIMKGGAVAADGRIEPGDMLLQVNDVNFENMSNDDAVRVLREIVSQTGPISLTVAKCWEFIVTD
# T5: GST-MPP1 PDZ domain fusion protein (Homo sapiens (Human), UniProt Q00013 67-152)
# T5 construct: also called 55 Kd erythrocyte membrane protein; not shown: glutathione S-transferase (GST) encoded by pGEX-3X
# T5 sequence: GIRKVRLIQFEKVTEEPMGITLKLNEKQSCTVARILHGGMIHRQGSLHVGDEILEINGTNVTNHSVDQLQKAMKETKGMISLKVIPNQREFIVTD
# T6: GST-MINT3 PDZ domain fusion protein (human)
# T6 construct: also called human MINT3; not shown: glutathione S-transferase (GST) encoded by pGEX-3X
# T6 chain: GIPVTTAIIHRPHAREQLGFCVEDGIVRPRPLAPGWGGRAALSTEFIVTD
# T7: GST-LIMK2 PDZ domain fusion protein (human, UniProt P53671 147-237)
# T7 construct: also called human LIM domain kinase 2; not shown: glutathione S-transferase (GST) encoded by pGEX-3X
# T7 sequence: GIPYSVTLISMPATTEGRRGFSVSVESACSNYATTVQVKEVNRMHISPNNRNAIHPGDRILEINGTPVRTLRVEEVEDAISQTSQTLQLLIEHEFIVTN
# T8: GST-TAX33 PDZ domain fusion protein (Homo sapiens (Human), UniProt O14910 103-194)
# T8 construct: not shown: glutathione S-transferase (GST) encoded by pGEX-3X
# T8 sequence: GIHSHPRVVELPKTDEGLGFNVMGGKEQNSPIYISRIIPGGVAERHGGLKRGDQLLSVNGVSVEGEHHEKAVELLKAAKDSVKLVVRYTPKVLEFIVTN
# T9: GST-TAX2 PDZ domain fusion protein (human, UniProt O14908 129-216)
# T9 construct: not shown: glutathione S-transferase (GST) encoded by pGEX-3X
# T9 chain: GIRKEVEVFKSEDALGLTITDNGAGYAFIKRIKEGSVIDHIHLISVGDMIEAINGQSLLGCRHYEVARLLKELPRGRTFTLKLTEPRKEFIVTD
# Target: T1, GST-MPP2 PDZ domain fusion protein
# Assay: G assay
row,Binder,binding result
1,Biotin-TREDIYVNYPTFSRRPKTRV [DNAM-1 C-terminal peptide AA22L],binds
2,Biotin-ERLKLEPHEGLLLRFPYAA [CD98 (2F4) C-terminal peptide AA15L],binds

# Target: T2, GST-NeDLG PDZ domains 1-2 fusion protein
# Assay: G assay
row,Binder,binding result
1,Biotin-ISKATPALPTVSISSSAEV [CLASP-1 C-terminal peptide AA1L],binds
2,Biotin-KKGTYLTDETHREVKFTSL [CD46 (form 1) C-terminal peptide AA10L],binds
3,Biotin-LASKSAEEGKQIPDSLSTDL [DOCK2 C-terminal peptide AA40L],binds

# Target: T3, GST-SYN1a (alpha1-syntrophin) PDZ …
# Assay: G assay
row,Binder,binding result
1,Biotin-LASKSAEEGKQIPDSLSTDL [DOCK2 C-terminal peptide AA40L],binds

# Target: T2, GST-NeDLG PDZ domains 1-2 fusion protein
# Assay: A and G assays
row,Binder,binding result
1,Biotin-TTNNNPNSAVNIKKIFTDV [KV1.3 C-terminal peptide AA33L],binds

# Target: T4, GST-DVL1 PDZ domain fusion protein
# Assay: A assay
row,Binder,binding result
1,Biotin-TTNNNPNSAVNIKKIFTDV [KV1.3 C-terminal peptide AA33L],binds

# Target: T2, GST-NeDLG PDZ domains 1-2 fusion protein
# Assay: A assay
row,Binder,binding result
1,Biotin-TREDIYVNYPTFSRRPKTRV [DNAM-1 C-terminal peptide AA22L],binds

# Target: T10, GST-PSD95 PDZ domains 1-3 fusion protein (human, UniProt P31016 58-395 (rat entry))
# T10 construct: not shown: glutathione S-transferase (GST) encoded by pGEX-3X
# T10 sequence (P31016 other isoform, or with tags, fused parts or gaps): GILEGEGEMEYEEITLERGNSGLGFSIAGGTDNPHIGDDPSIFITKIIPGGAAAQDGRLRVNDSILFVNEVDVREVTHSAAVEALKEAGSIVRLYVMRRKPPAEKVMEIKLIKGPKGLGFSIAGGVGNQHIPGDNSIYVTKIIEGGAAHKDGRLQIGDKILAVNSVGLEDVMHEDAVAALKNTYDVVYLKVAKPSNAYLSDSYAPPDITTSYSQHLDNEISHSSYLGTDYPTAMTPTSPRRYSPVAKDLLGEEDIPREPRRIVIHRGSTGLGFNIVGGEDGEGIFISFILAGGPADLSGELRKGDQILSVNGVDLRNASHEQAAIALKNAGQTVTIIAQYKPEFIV
# Assay: A assay
row,Binder,binding result
1,Biotin-ISKATPALPTVSISSSAEV [CLASP-1 C-terminal peptide AA1L],binds

# Target: T5, GST-MPP1 PDZ domain fusion protein
# Assay: A assay
row,Binder,binding result
1,Biotin-TREDIYVNYPTFSRRPKTRV [DNAM-1 C-terminal peptide AA22L],binds

# Target: T1, GST-MPP2 PDZ domain fusion protein
# Assay: A/G assays
row,Binder,binding result
1,Biotin-TTNNNPNSAVNIKKIFTDV [KV1.3 C-terminal peptide AA33L],no binding
2,Biotin-ISKATPALPTVSISSSAEV [CLASP-1 C-terminal peptide AA1L],no binding
3,Biotin-KKGTYLTDETHREVKFTSL [CD46 (form 1) C-terminal peptide AA10L],no binding
4,Biotin-LASKSAEEGKQIPDSLSTDL [DOCK2 C-terminal peptide AA40L],no binding

# Target: T4, GST-DVL1 PDZ domain fusion protein
# Assay: A/G assays
row,Binder,binding result
1,Biotin-ISKATPALPTVSISSSAEV [CLASP-1 C-terminal peptide AA1L],no binding
2,Biotin-TREDIYVNYPTFSRRPKTRV [DNAM-1 C-terminal peptide AA22L],no binding
3,Biotin-KKGTYLTDETHREVKFTSL [CD46 (form 1) C-terminal peptide AA10L],no binding
4,Biotin-LASKSAEEGKQIPDSLSTDL [DOCK2 C-terminal peptide AA40L],no binding
5,Biotin-ERLKLEPHEGLLLRFPYAA [CD98 (2F4) C-terminal peptide AA15L],no binding

# Target: T6, GST-MINT3 PDZ domain fusion protein
# Assay: A/G assays
row,Binder,binding result
1,Biotin-TTNNNPNSAVNIKKIFTDV [KV1.3 C-terminal peptide AA33L],no binding
2,Biotin-ISKATPALPTVSISSSAEV [CLASP-1 C-terminal peptide AA1L],no binding
3,Biotin-TREDIYVNYPTFSRRPKTRV [DNAM-1 C-terminal peptide AA22L],no binding
4,Biotin-KKGTYLTDETHREVKFTSL [CD46 (form 1) C-terminal peptide AA10L],no binding
5,Biotin-LASKSAEEGKQIPDSLSTDL [DOCK2 C-terminal peptide AA40L],no binding
6,Biotin-ERLKLEPHEGLLLRFPYAA [CD98 (2F4) C-terminal peptide AA15L],no binding

# Target: T7, GST-LIMK2 PDZ domain fusion protein
# Assay: A/G assays
row,Binder,binding result
1,Biotin-TTNNNPNSAVNIKKIFTDV [KV1.3 C-terminal peptide AA33L],no binding
2,Biotin-ISKATPALPTVSISSSAEV [CLASP-1 C-terminal peptide AA1L],no binding
3,Biotin-TREDIYVNYPTFSRRPKTRV [DNAM-1 C-terminal peptide AA22L],no binding
4,Biotin-KKGTYLTDETHREVKFTSL [CD46 (form 1) C-terminal peptide AA10L],no binding
5,Biotin-LASKSAEEGKQIPDSLSTDL [DOCK2 C-terminal peptide AA40L],no binding
6,Biotin-ERLKLEPHEGLLLRFPYAA [CD98 (2F4) C-terminal peptide AA15L],no binding

# Target: T2, GST-NeDLG PDZ domains 1-2 fusion protein
# Assay: A/G assays
row,Binder,binding result
1,Biotin-ERLKLEPHEGLLLRFPYAA [CD98 (2F4) C-terminal peptide AA15L],no binding

# Target: T11, GST-NOS1 PDZ domain fusion protein (human, UniProt P29475 11-101)
# T11 construct: also called human neuronal nitric oxide synthase; not shown: glutathione S-transferase (GST) encoded by pGEX-3X
# T11 sequence (P29475 other isoform, or with tags, fused parts or gaps): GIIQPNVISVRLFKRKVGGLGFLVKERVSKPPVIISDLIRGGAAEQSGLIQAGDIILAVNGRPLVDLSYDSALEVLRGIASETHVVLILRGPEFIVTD
# Assay: A/G assays
row,Binder,binding result
1,Biotin-TREDIYVNYPTFSRRPKTRV [DNAM-1 C-terminal peptide AA22L],no binding
2,Biotin-ERLKLEPHEGLLLRFPYAA [CD98 (2F4) C-terminal peptide AA15L],no binding

# Target: T8, GST-TAX33 PDZ domain fusion protein
# Assay: A/G assays
row,Binder,binding result
1,Biotin-ERLKLEPHEGLLLRFPYAA [CD98 (2F4) C-terminal peptide AA15L],no binding

# Target: T12, GST-KIAA0316 PDZ domain fusion protein (Homo sapiens (Human), UniProt Q14CM0 72-159)
# T12 construct: also called K316; not shown: glutathione S-transferase (GST) encoded by pGEX-3X
# T12 sequence (Q14CM0 other isoform, or with tags, fused parts or gaps): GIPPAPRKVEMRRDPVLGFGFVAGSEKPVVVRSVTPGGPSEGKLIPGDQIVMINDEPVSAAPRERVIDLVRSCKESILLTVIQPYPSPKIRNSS
# Assay: A/G assays
row,Binder,binding result
1,Biotin-ERLKLEPHEGLLLRFPYAA [CD98 (2F4) C-terminal peptide AA15L],no binding

# Target: T9, GST-TAX2 PDZ domain fusion protein
# Assay: A/G assays
row,Binder,binding result
1,Biotin-TTNNNPNSAVNIKKIFTDV [KV1.3 C-terminal peptide AA33L],no binding
2,Biotin-ISKATPALPTVSISSSAEV [CLASP-1 C-terminal peptide AA1L],no binding
3,Biotin-TREDIYVNYPTFSRRPKTRV [DNAM-1 C-terminal peptide AA22L],no binding
4,Biotin-KKGTYLTDETHREVKFTSL [CD46 (form 1) C-terminal peptide AA10L],no binding
5,Biotin-LASKSAEEGKQIPDSLSTDL [DOCK2 C-terminal peptide AA40L],no binding
6,Biotin-ERLKLEPHEGLLLRFPYAA [CD98 (2F4) C-terminal peptide AA15L],no binding

# Target: T3, GST-SYN1a (alpha1-syntrophin) PDZ …
# Assay: A/G assays
row,Binder,binding result
1,Biotin-TTNNNPNSAVNIKKIFTDV [KV1.3 C-terminal peptide AA33L],no binding
2,Biotin-ISKATPALPTVSISSSAEV [CLASP-1 C-terminal peptide AA1L],no binding
3,Biotin-TREDIYVNYPTFSRRPKTRV [DNAM-1 C-terminal peptide AA22L],no binding
4,Biotin-KKGTYLTDETHREVKFTSL [CD46 (form 1) C-terminal peptide AA10L],no binding
5,Biotin-ERLKLEPHEGLLLRFPYAA [CD98 (2F4) C-terminal peptide AA15L],no binding

# Reference: patent publication US6942981
